The Kd is the free concentration of one partner at which half of the binding sites on the other are occupied at equilibrium, for simple one-to-one binding. Read a high Kd as lower affinity.

In this assay the target is T1, ZIKV E80 (寨卡病毒包膜蛋白N端80%区域, 氨基酸1-409) (Zika virus (2015 South American …, UniProt A0A024B7W1 291-699)).
T1 construct: also called ZKE80
Briefly: BLI (Octet-Red), biotinylated ZIKV E80 on streptavidin sensor, antibody at 40-0.064 ug/ml in solution. Background: BLI is a label-free optical method that tracks binding on a fibre tip over time.

T1 sequence (A0A024B7W1 291-699): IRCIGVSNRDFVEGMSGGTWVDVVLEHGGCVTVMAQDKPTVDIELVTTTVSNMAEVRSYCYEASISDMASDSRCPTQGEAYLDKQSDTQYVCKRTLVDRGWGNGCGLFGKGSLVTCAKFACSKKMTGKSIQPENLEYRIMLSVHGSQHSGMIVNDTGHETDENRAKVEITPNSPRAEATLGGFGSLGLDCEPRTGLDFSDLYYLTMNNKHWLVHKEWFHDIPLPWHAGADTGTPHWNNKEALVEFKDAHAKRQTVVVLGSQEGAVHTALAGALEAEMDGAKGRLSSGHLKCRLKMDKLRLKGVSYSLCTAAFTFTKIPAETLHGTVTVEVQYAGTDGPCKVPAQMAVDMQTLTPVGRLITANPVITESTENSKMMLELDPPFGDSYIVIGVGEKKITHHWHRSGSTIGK

B1: 单克隆抗体5F8 (antibody, V domains shown)
VH: QVQLQQSGAELVRPGVSAKISCKASGYIFTDYAMHWVKQSHAKSLEWIGLISTKSGAANYNQKFTDKATLTVDKSSSTAYLELARLTSEDSAIYYCARNDYLAWLPYWGQGTLVTVSA
VL: DVLMTQTPLSLPVSLGDHASISCRSSQSIVHSNGNTYLEWYLQKPGQSPKLLIYKVSYRFSGVPDRFSGSGSGTDFTLKISRVEAEDLGVYYCFQGSHVPWTFGGGTKLEIK
notes: also called 单抗5F8; 重组5F8
In turn, B1 registered a Kd of 15 nM.
